Results: patent publication US20140356358A1 (Amgen, published 2014)
Where a chain is given by its changes, count along the chain named. Numbers in names are those of the source.

B1: L5 isolate with insertion SEQ ID NO: 392 (other)
chain: EPKSCDKTHTCPPCPAPELLGGPSVFLFPPKPKDTLMISRTPEVTCVVVDVSHEDPEVKFNWYVDGVEVHNAKTKPREEQYNSTYRVVSVLTVLHQDWLNGKEYKCKVSNKALPAPIEKTISKAKGQPREPQVYTLPPSRDELTKNQVSLTCLVKGFYPSDIAVEWESNGGCPHMFPWCGGGQPENNYKTTPPVLDSDGSFFLYSKLTVDKSRWQQGNVFSCSVMHEALHNHYTQKSLSLSPGK
B2: L5 isolate with insertion SEQ ID NO: 393 (other)
chain: B1 chain with P173G, M175G, F176W, P177I, W178F
B3: L5 isolate with insertion SEQ ID NO: 395 (other)
chain: B1 chain with P173I, H174L, M175N, P177Y, W178G
B4: L5 isolate with insertion SEQ ID NO: 396 (other)
chain: B1 chain with P173R, H174E, M175P, F176H, W178F
B5: L5 isolate with insertion SEQ ID NO: 397 (other)
chain: B1 chain with H174F, M175E, P177T, W178Q
B6: L5 isolate with insertion SEQ ID NO: 398 (other)
chain: B1 chain with P173Q, H174L, M175G, F176S, P177M, W178H
B7: L5 isolate with insertion SEQ ID NO: 399 (other)
chain: B1 chain with P173Y, H174E, M175N, F176K, P177T, W178L
B8: L5 isolate with insertion SEQ ID NO: 402 (other)
chain: B1 chain with P173E, H174L, M175Q, F176E, P177R
B9: L5 isolate with insertion SEQ ID NO: 403 (other)
chain: B1 chain with H174A, M175N, F176W, P177G, W178T
B10: L5 isolate with insertion SEQ ID NO: 404 (other)
chain: B1 chain with P173M, H174M, M175E, P177A, W178Q
B11: L5 isolate with insertion SEQ ID NO: 405 (other)
chain: B1 chain with P173Q, M175H, F176I, P177M, W178Q
B12: L5 isolate with insertion SEQ ID NO: 406 (other)
chain: B1 chain with P173Y, H174Q, M175H, F176H, P177M, W178E
B13: L5 isolate with insertion SEQ ID NO: 408 (other)
chain: B1 chain with P173Q, H174K, M175G, F176W, P177V, W178F
B14: L5 isolate with insertion SEQ ID NO: 409 (other)
chain: B1 chain with P173V, H174Y, M175D, F176V, P177K, W178K
B15: L5 isolate with insertion SEQ ID NO: 411 (other)
chain: B1 chain with P173N, H174M, M175L, F176W, P177G, W178S
B16: L5 isolate with insertion SEQ ID NO: 412 (other)
chain: B1 chain with P173M, H174Q, M175P, F176W, P177A, W178F
B17: L5 isolate with insertion SEQ ID NO: 413 (other)
chain: B1 chain with P173M, H174T, M175Q, F176Y, P177N
B18: L5 isolate with insertion SEQ ID NO: 414 (other)
chain: B1 chain with P173V, H174N, M175T, F176W, P177W, W178S
B19: L5 isolate with insertion SEQ ID NO: 415 (other)
chain: B1 chain with P173Y, H174I, M175T, F176Q, P177K, W178L
B20: L5 isolate with insertion SEQ ID NO: 416 (other)
chain: B1 chain with P173E, H174T, M175H, F176Y, P177T, W178Y
B21: L5 isolate with insertion SEQ ID NO: 417 (other)
chain: B1 chain with P173T, H174E, M175Q, F176V, P177M
B22: L5 isolate with insertion SEQ ID NO: 418 (other)
chain: B1 chain with P173I, H174T, M175E, P177S, W178H
B23: L5 isolate with insertion SEQ ID NO: 419 (other)
chain: B1 chain with P173Q, H174N, M175R, F176S, P177Y
B24: L5 isolate with insertion SEQ ID NO: 420 (other)
chain: B1 chain with P173H, H174G, M175T, F176K, P177Q, W178F
B25: L5 isolate with insertion SEQ ID NO: 421 (other)
chain: B1 chain with P173N, H174P, M175H, F176R, P177T, W178P
B26: L5 isolate with insertion SEQ ID NO: 422 (other)
chain: B1 chain with P173Q, M175S, F176P, W178L
B27: L5 isolate with insertion SEQ ID NO: 423 (other)
chain: B1 chain with P173N, M175E, F176E, P177T, W178F
B28: L5 isolate with insertion SEQ ID NO: 424 (other)
chain: B1 chain with P173Q, H174Y, M175P, F176R, P177K, W178L
B29: L5 isolate with insertion SEQ ID NO: 425 (other)
chain: B1 chain with P173I, H174G, M175P, P177W
B30: L5 isolate with insertion SEQ ID NO: 426 (other)
chain: B1 chain with P173M, H174Q, M175P, F176W, P177I, W178N
B31: L5 isolate with insertion SEQ ID NO: 428 (other)
chain: B1 chain with P173E, H174M, M175E, F176N, P177A
B32: L5 isolate with insertion SEQ ID NO: 429 (other)
chain: B1 chain with H174P, M175W, F176P, P177E, W178R
B33: L5 isolate with insertion SEQ ID NO: 430 (other)
chain: B1 chain with P173H, H174D, M175P, F176E, W178F
B34: L5 isolate with insertion SEQ ID NO: 431 (other)
chain: B1 chain with P173N, H174E, M175P, F176K, P177Y, W178V
B35: L5 isolate with insertion SEQ ID NO: 432 (other)
chain: B1 chain with P173D, H174R, M175P, F176V, P177W, W178F
B36: L5 isolate with insertion SEQ ID NO: 433 (other)
chain: B1 chain with P173E, H174I, M175P, F176H, P177S, W178F
B37: L5 isolate with insertion SEQ ID NO: 434 (other)
chain: B1 chain with P173M, H174P, M175Y, F176E, P177M, W178H
B38: L5 isolate with insertion SEQ ID NO: 435 (other)
chain: B1 chain with P173K, H174R, M175E, F176N, W178Y
B39: L5 isolate with insertion SEQ ID NO: 436 (other)
chain: B1 chain with P173A, H174E, M175R, F176Q, P177Y, W178Y
B40: L5 isolate with insertion SEQ ID NO: 438 (other)
chain: B1 chain with P173K, H174S, F176I, P177S, W178M
B41: L5 isolate with insertion SEQ ID NO: 401 (other)
chain: B1 chain with P173M, H174V, M175P, P177S, W178M
B42: L5 isolate with insertion SEQ ID NO: 407 (other)
chain: B1 chain with P173M, H174V, M175P, P177S, W178M
B43: L5 isolate with insertion SEQ ID NO: 437 (other)
chain: B1 chain with P173N, H174V, M175L, F176D, P177L, W178F
B44: L5 isolate with insertion SEQ ID NO: 442 (other)
chain: B1 chain with P173N, H174V, M175L, F176D, P177L, W178F
B45: L6B isolate with insertion SEQ ID NO: 455 (other)
chain: EPKSCDKTHTCPPCPAPELLGGPSVFLFPPKPKDTLMISRTPEVTCVVVDVSHEDPEVKFNWYVDGVEVHNAKTKPREEQYNSTYRVVSVLTVLHQDWLNGKEYKCKVSNKALPAPIEKTISKAKGQPREPQVYTLPPSRDELGGCVSAATSRTCGGTKNQVSLTCLVKGFYPSDIAVEWESNGQPENNYKTTPPVLDSDGSFFLYSKLTVDKSRWQQGNVFSCSVMHEALHNHYTQKSLSLSPGK

biological target: T1, human neonatal Fc receptor (hFcRn) (human, UniProt P55899 24-290; P61769 21-119); test: phage ELISA pH 6
T1 construct: Biotinylated in the ELISA, Octet and yeast assays; also called human FcRn; huFcRn
Method: (§1) Approximately 100 μL of biotinylated human FcRn at 2 μg/mL was added to the wells of MAXISORP™ plates coated with 10 μg/mL streptavidin. After washing with PBS plus 0.05% Tween 20 (PBST) five times, phage from the overnight cultures in MES buffer at pH 6.0 or pH 7.4 were added to the plates and incubated at room temperature for 1 hr. A horseradish peroxidase (HRP)-conjugated anti-M13 antibody was used to detect the binding phage, and the plates were scored by a microtiter plate reader using a wavelength in the visible range.
(§2) Binding was assessed by a quantitative enzyme-linked immunoadsorbent assay (ELISA). The ELISA scores reflect binding affinity, with higher scores meaning higher affinity. Typically, scores higher than about 3˜5 indicate binding above background. For library L5, the insertions are between the N169 and G170 according to the numbering in FIG. 2. For libraries 6A and 6B, the insertions are between L143 and T144 according to the numbering in FIG. 2.
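Note: higher score means stronger binding and above about 3 to 5 exceeds background.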

T1 sequence (P55899 24-290 limits assumed, chain 1 of 2): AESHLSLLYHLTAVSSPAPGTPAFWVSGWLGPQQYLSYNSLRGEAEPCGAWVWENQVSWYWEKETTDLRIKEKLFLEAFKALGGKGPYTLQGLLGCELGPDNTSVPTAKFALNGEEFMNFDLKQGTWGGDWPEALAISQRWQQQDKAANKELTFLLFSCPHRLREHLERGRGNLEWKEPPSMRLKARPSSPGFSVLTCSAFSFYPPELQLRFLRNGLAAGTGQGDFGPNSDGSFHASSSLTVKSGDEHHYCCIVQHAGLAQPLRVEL
T1 sequence (P61769 21-119 limits assumed, chain 2 of 2): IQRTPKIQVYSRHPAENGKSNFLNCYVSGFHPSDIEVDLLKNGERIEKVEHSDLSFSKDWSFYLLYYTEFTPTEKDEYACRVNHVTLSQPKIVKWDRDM

Binder | ELISA score
B1 | 95.1
B2 | 92.1
B3 | 89.5
B4 | 88.6
B5 | 87.3
B6 | 86.5
B7 | 86.3
B8 | 75.5
B9 | 74.8
B10 | 74.2
B11 | 73.4
B12 | 73.1
B13 | 72
B14 | 71.2
B15 | 68.6
B16 | 67.4
B17 | 65.6
B18 | 65.2
B19 | 63.6
B20 | 63

Binder | ELISA score
B21 | 62.2
B22 | 61.2
B23 | 61
B24 | 61
B25 | 60.9
B26 | 60.3
B27 | 60.2
B28 | 59.6
B29 | 59.2
B30 | 59.2
B31 | 58.5
B32 | 58.3
B33 | 57.7
B34 | 57.7
B35 | 57.7
B36 | 57.2
B37 | 56.7
B38 | 55.6
B39 | 55.5
B40 | 55.2

biological target: T1, human neonatal Fc receptor (hFcRn); test: phage ELISA pH 7.4
Method: as §1, §2

Binder | ELISA score
B1 | 15.1
B2 | 28.4
B3 | 23.5
B4 | 8.9
B5 | 1.8
B6 | 0.4
B7 | 1.6
B41 | 0.6
B8 | 0.3
B9 | 0.5
B10 | 2.3
B11 | 0.4
B12 | 0.4
B42 | 0.6
B13 | 0.4
B14 | 0.7
B15 | 0.6
B16 | 0.4
B17 | 0.5
B18 | 0.3
B19 | 0.7
B20 | 0.5
B21 | 0.3

Binder | ELISA score
B22 | 0.4
B23 | 0.3
B24 | 0.5
B25 | 0.3
B26 | 0.3
B27 | 0.4
B28 | 0.3
B29 | 0.3
B30 | 0.3
B31 | 0.5
B32 | 0.3
B33 | 0.4
B34 | 0.5
B35 | 0.5
B36 | 0.7
B37 | 0.4
B38 | 0.7
B39 | 1.4
B43 | 0.3
B40 | 0.2
B44 | 0.3
B45 | 0.3
